According to PMC6700787, “Sharpin suppresses β1-integrin activation by complexing with the β1 tail and kindlin-1” (Cell Communication and Signaling : CCS, 2019):

T1: GST-fused kindlin-1 (Homo sapiens (Human), UniProt Q9BQL6)
T1 chain: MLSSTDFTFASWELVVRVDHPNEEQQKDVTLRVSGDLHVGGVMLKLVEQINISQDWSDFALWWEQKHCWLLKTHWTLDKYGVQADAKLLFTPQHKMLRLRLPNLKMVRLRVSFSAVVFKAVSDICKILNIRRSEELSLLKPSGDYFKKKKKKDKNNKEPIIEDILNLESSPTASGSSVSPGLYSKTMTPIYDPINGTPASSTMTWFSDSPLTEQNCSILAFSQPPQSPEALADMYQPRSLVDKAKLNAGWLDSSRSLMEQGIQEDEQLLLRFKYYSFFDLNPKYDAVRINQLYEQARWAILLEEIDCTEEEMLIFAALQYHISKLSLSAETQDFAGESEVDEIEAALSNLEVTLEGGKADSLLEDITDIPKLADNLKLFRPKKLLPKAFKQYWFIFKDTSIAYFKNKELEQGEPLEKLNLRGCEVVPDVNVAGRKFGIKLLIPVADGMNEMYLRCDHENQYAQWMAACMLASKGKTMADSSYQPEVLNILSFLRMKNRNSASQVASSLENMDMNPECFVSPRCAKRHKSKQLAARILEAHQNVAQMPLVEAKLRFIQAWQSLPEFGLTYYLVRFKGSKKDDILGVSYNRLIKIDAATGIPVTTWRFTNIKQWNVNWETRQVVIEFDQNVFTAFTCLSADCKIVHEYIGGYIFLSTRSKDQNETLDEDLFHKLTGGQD

T2: GST-fused integrin β1 cytoplasmic tail (Homo sapiens (Human), UniProt P05556)
T2 chain: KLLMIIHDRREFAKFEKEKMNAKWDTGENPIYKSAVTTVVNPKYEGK

T3: N-terminus of sharpin (SH-N, 1-217 amino acids), his-tagged (UniProt Q9H0F6 1-217)
T3 construct: also called His-SH-N; N-terminal fragment of sharpin; source: E. coli Rosetta DE3, purified (Ni-NTA agarose)
T3 sequence (looked up): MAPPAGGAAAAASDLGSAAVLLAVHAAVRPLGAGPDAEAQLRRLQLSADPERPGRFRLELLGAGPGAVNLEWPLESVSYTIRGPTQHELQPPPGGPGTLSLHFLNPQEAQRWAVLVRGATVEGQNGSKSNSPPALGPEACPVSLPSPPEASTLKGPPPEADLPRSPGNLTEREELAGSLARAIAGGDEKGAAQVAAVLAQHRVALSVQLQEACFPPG


What was measured:
GST-fused kindlin-1 = biological target: T1, GST-fused kindlin-1; test: GST pull-down
[1] = biological target: T2, GST-fused integrin β1 cytoplasmic tail; test: GST pull-down
[2] = biological target: T3, N-terminus of sharpin (SH-N, 1-217 …); test: SPR; Biacore 8K; N-terminal fragment of sharpin coupled to a CM5 chip; integrin β1 CT or β3 CT injected at 2.5, 5, 10, 20 and 40 μM; room temperature, PBS; conditions: both partners purified

binding result (GST-fused kindlin-1) | binding result [1] | Kd [2] [µM] | Binder
binds | no binding | – | C-terminus of sharpin (SH-C, 217-387 amino acids), his-tagged (protein) GPIRLQVTLEDAASAASAASSAHVALQVHPHCTVAALQEQVFSELGFPPAVQRWVIGRCLCVPERSLASYGVRQDGDPAFLYLLSAPREAPATGPSPQHPQKMDGELGRLFPPSLGLPPGPQPAASSLPSPLQPSWSCPSCTFINAPDRPGCEMCSTQRPCTWDPLAAAST
– | binds | – | his-tagged kindlin-1 (protein) MLSSTDFTFASWELVVRVDHPNEEQQKDVTLRVSGDLHVGGVMLKLVEQINISQDWSDFALWWEQKHCWLLKTHWTLDKYGVQADAKLLFTPQHKMLRLRLPNLKMVRLRVSFSAVVFKAVSDICKILNIRRSEELSLLKPSGDYFKKKKKKDKNNKEPIIEDILNLESSPTASGSSVSPGLYSKTMTPIYDPINGTPASSTMTWFSDSPLTEQNCSILAFSQPPQSPEALADMYQPRSLVDKAKLNAGWLDSSRSLMEQGIQEDEQLLLRFKYYSFFDLNPKYDAVRINQLYEQARWAILLEEIDCTEEEMLIFAALQYHISKLSLSAETQDFAGESEVDEIEAALSNLEVTLEGGKADSLLEDITDIPKLADNLKLFRPKKLLPKAFKQYWFIFKDTSIAYFKNKELEQGEPLEKLNLRGCEVVPDVNVAGRKFGIKLLIPVADGMNEMYLRCDHENQYAQWMAACMLASKGKTMADSSYQPEVLNILSFLRMKNRNSASQVASSLENMDMNPECFVSPRCAKRHKSKQLAARILEAHQNVAQMPLVEAKLRFIQAWQSLPEFGLTYYLVRFKGSKKDDILGVSYNRLIKIDAATGIPVTTWRFTNIKQWNVNWETRQVVIEFDQNVFTAFTCLSADCKIVHEYIGGYIFLSTRSKDQNETLDEDLFHKLTGGQD
– | – | 40 | KLLMIIHDRREFAKFEKEKMNAKWDTGENPIYKSAVTTVVNPKYEGK (domain or fragment, UniProt P05556 752-798, looked up, Integrin β1 cytoplasmic tail (CT); 15N-labelled in the HSQC experiment, unlabelled analyte in SPR; The only vector named for the tails is pGST-1; also called ^15N-labeled β1 CT; the integrin β1 CT protein) [integrin β1 CT protein (NMR and SPR samples)]
